Publication PMC11220139, “Biophysical and structural studies of fibulin-2” (Scientific Reports, 2024)

Experiments:
[1] = molecular target: mouse fibulin-2 construct S427-G545, three anaphylatoxin-like modules (mutant C500L) (mouse) (UniProt P37889); assay: SEC-MALS; 50 µL of ~2 mg/mL SEC purified protein on Superdex 200 Increase 10/300, 20 mM Tris-HCl pH 8, 150 mM NaCl, 0.5 mL/min
[2] = molecular target: the molecule itself; assay: as above

Row | Molecule | stoichiometry N [1] | stoichiometry N [2]
1 | mouse fibulin-2 construct S427-G545, three anaphylatoxin-like modules (mutant C500L) (from UniProt P37889 427-545) (domain or fragment) | 2 | 
2 | mouse fibulin-2 construct S427-G545, three anaphylatoxin-like modules (wild-type) (domain or fragment, UniProt P37889 427-545, looked up, fibulin-2, mouse, residues S427-G545 (three anaphylatoxin-like modules); numbering is according to the full-length protein; Homodimer linked by an inter-molecular disulfide bond via C500; 8 intra-molecular disulfide bonds in each chain; also called MH6M-S427-G545; pAS79 construct; source: E. coli BL21 (DE3) with the CyDisCo plasmid pMJS205 (Erv1p and PDI), purified (nickel IMAC, SEC); not shown: …) STKDLIETCCAAGQQWAIDNDECQEIPENGAQSDICRIAQRQCCISYLKEKSCVAGVMGAKEGETCGAEDNDTCGVSLYKQCCDCCGLGLRVRAEGQSCESNPNLGYPCNHVMLSCCEG |  | 2
